Where two headings read alike, the source gives them in different places.
T1: BCMA on MM.1S target cells (UniProt Q02223 1-184, limits assumed)
T1 sequence (looked up): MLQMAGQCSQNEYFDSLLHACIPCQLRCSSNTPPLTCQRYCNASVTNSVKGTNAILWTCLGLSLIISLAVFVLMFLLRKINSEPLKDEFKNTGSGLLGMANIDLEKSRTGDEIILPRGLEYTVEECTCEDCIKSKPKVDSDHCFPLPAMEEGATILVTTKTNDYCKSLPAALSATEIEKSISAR

B1: aBi-scDb-Fc_01 (bispecific antibody)
chain 1: SYVLTQPSSVSVAPGQTATISCGGHNIGSKNVHWYQQRPGQSPVLVIYQDNKRPSGIPERFSGSNSGNTATLTISGTQAMDEADYYCQVWDNYSVLFGGGTKLTVLGGSGGSQVQLVQSGAEVKKPGESLKVSCKASGYTFTSYYMHWVRQAPGQGLEWMGAIEPMYGSTSYAQKFQGRVTMTRDTSTSTVYMELSSLRSEDTAVYYCARGSAYYYDFADYWGQGTLVTVSSGGSGGSGGSGGSGGSGGSSYVLTQPSSVSVAPGQTATISCGGHNIGSKNVHWYQQRPGQSPVLVIYQDNKRPSGIPERFSGSNSGNTATLTISGTQAMDEADYYCQVWDNYSVLFGGGTKLTVLGGSGGSQVQLVQSGAEVKKPGESLKVSCKASGYTFTSYYMHWVRQAPGQGLEWMGAIEPMYGSTSYAQKFQGRVTMTRDTSTSTVYMELSSLRSEDTAVYYCARGSAYYYDFADYWGQGTLVTVSSGGGGSDKTHTCPPCPAPEFEGGPSVFLFPPKPKDTLMISRTPEVTCVVVAVSHEDPEVKFNWYVDGVEVHNAKTKPREEQYNSTYRVVSVLTVLHQDWLNGKEYKCKVSNKALPAPIEKTISKAKGQPREPQVYTLPPSREEMTKNQVSLTCLVKGFYPSDIAVEWESNGQPENNYKTTPPVLDSDGSFFLTSKLTVDKSRWQQGNVFSCSVMHEALHNHYTQKSLSLSPGAAAGSHHHHHH
chain 2: SYVLTQPSSVSVAPGQTATISCGGHNIGSKNVHWYQQRPGQSPVLVIYQDNKRPSGIPERFSGSNSGNTATLTISGTQAMDEADYYCQVWDNYSVLFGGGTKLTVLGGSGGSQVQLVQSGAEVKKPGESLKVSCKASGYTFTSYYMHWVRQAPGQGLEWMGAIEPMYGSTSYAQKFQGRVTMTRDTSTSTVYMELSSLRSEDTAVYYCARGSAYYYDFADYWGQGTLVTVSSGGSGGSGGSGGSGGSGGSSYVLTQPSSVSVAPGQTATISCGGHNIGSKNVHWYQQRPGQSPVLVIYQDNKRPSGIPERFSGSNSGNTATLTISGTQAMDEADYYCQVWDNYSVLFGGGTKLTVLGGSGGSQVQLVQSGAEVKKPGESLKVSCKASGYTFTSYYMHWVRQAPGQGLEWMGAIEPMYGSTSYAQKFQGRVTMTRDTSTSTVYMELSSLRSEDTAVYYCARGSAYYYDFADYWGQGTLVTVSSGGGGSDKTHTCPPCPAPEFEGGPSVFLFPPKPKDTLMISRTPEVTCVVVAVSHEDPEVKFNWYVDGVEVHNAKTKPREEQYNSTYRVVSVLTVLHQDWLNGKEYKCKVSNKALPAPIEKTISKAKGQPREPQVYTLPPSREEMTKNQVSLYCLVKGFYPSDIAVEWESNGQPENNYKTTPPVLDSDGSFFLYSKLTVDKSRWQQGNVFSCSVMHEALHNHYTQKSLSLSPGGGGGSGGGGSEVQLLESGGGLVQPGGSLRLSCAASGFTFSNYDMAWVRQAPGKGLEWVSSISTRGDITSYRDSVKGRFTISRDNSKNTLYLQMNSLRAEDTAVYYCARQDYYTDYMGFAYWGQGTLVTVSSGGGGSGGGGSGGGGSAIQMTQSPSSLSASVGDRVTITCRASEDIYNGLAWYQQKPGKAPKLLIYGASSLQDGVPSRFSGSGSGTEFTLTISSLQPEDEATYYCAGPHKYPLTFGGGTKVEIK
B2: aBi-scDb-Fc_03 (bispecific antibody)
chain 1: DKTHTCPPCPAPEFEGGPSVFLFPPKPKDTLMISRTPEVTCVVVAVSHEDPEVKFNWYVDGVEVHNAKTKPREEQYNSTYRVVSVLTVLHQDWLNGKEYKCKVSNKALPAPIEKTISKAKGQPREPQVYTLPPSREEMTKNQVSLTCLVKGFYPSDIAVEWESNGQPENNYKTTPPVLDSDGSFFLTSKLTVDKSRWQQGNVFSCSVMHEALHNHYTQKSLSLSPGGGGGSGGGGSSYVLTQPSSVSVAPGQTATISCGGHNIGSKNVHWYQQRPGQSPVLVIYQDNKRPSGIPERFSGSNSGNTATLTISGTQAMDEADYYCQVWDNYSVLFGGGTKLTVLGGSGGSQVQLVQSGAEVKKPGESLKVSCKASGYTFTSYYMHWVRQAPGQGLEWMGAIEPMYGSTSYAQKFQGRVTMTRDTSTSTVYMELSSLRSEDTAVYYCARGSAYYYDFADYWGQGTLVTVSSGGSGGSGGSGGSGGSGGSSYVLTQPSSVSVAPGQTATISCGGHNIGSKNVHWYQQRPGQSPVLVIYQDNKRPSGIPERFSGSNSGNTATLTISGTQAMDEADYYCQVWDNYSVLFGGGTKLTVLGGSGGSQVQLVQSGAEVKKPGESLKVSCKASGYTFTSYYMHWVRQAPGQGLEWMGAIEPMYGSTSYAQKFQGRVTMTRDTSTSTVYMELSSLRSEDTAVYYCARGSAYYYDFADYWGQGTLVTVSSAAAGSHHHHHH
chain 2: B1 chain 2
B3: scFv-IgAb_167 (bispecific antibody)
heavy: QVQLQESGPGLVKPSETLSLTCTVSGGSVSSGSYYWSWIRQPPGKGLEWIGYIYYSGSTNYNPSLKSRVTISVDTSKNQFSLKLSSVTAADTAVYYCARNPISIPAFDIWGQGTMVTVSSASTKGPSVFPLAPSSKSTSGGTAALGCLVKDYFPEPVTVSWNSGALTSGVHTFPAVLQSSGLYSLSSVVTVPSSSLGTQTYICNVNHKPSNTKVDKKVEPKSCDKTHTCPPCPAPEFEGGPSVFLFPPKPKDTLMISRTPEVTCVVVAVSHEDPEVKFNWYVDGVEVHNAKTKPREEQYNSTYRVVSVLTVLHQDWLNGKEYKCKVSNKALPAPIEKTISKAKGQPREPQVYTLPPSREEMTKNQVSLTCLVKGFYPSDIAVEWESNGQPENNYKTTPPVLDSDGSFFLYSKLTVDKSRWQQGNVFSCSVMHEALHNHYTQKSLSLSPGGGGGSGGGGSGGGGSGGGGSGGGGSGGGGSSYVLTQPSSVSVAPGQTARITCGGNNIGSKSVHWYQQKPGQAPVLVIYQDKKRPSGIPERFSGSNSGNTATLTISGTQAMDEADYYCQVWDDYIVLFGGGTKLTVLGGSGGSGGSGGSGGSGGSGGSQVQLVQSGAEVKKPGESLKVSCKASGYTFTNYYMQWVRQAPGQGLEWMGIINPSGGVTSYAQKFQGRVTMTRDTSTSTVYMELSSLRSEDTAVYYCARGSAYYYDFADYWGQGTLVTVSS
light: QPVLTQPPSVSVAPGKTARITCGGNNIGSKSVHWYQQKPGQAPVLVIYYDSDRPSGIPERFSGSNSGNTATLTISRVEAGDEADYYCQVWDTSSDHVLFGGGTKLTVLGQPKAAPSVTLFPPSSEELQANKATLVCLISDFYPGAVTVAWKADSSPVKAGVETTTPSKQSNNKYAASSYLSLTPEQWKSHRSYSCQVTHEGSTVEKTVAPTECS
B4: Bi-scDb-IgAb_06 (bispecific antibody)
heavy: QVQLQESGPGLVKPSETLSLTCTVSGGSVSSGSYYWSWIRQPPGKGLEWIGYIYYSGSTNYNPSLKSRVTISVDTSKNQFSLKLSSVTAADTAVYYCARNPISIPAFDIWGQGTMVTVSSASTKGPSVFPLAPSSKSTSGGTAALGCLVKDYFPEPVTVSWNSGALTSGVHTFPAVLQSSGLYSLSSVVTVPSSSLGTQTYICNVNHKPSNTKVDKKVEPKSCDKTHTCPPCPAPEFEGGPSVFLFPPKPKDTLMISRTPEVTCVVVAVSHEDPEVKFNWYVDGVEVHNAKTKPREEQYNSTYRVVSVLTVLHQDWLNGKEYKCKVSNKALPAPIEKTISKAKGQPREPQVYTLPPSREEMTKNQVSLTCLVKGFYPSDIAVEWESNGQPENNYKTTPPVLDSDGSFFLYSKLTVDKSRWQQGNVFSCSVMHEALHNHYTQKSLSLSPGGGGGSGGGGSSYVLTQPSSVSVAPGQTATISCGGHNIGSKNVHWYQQRPGQSPVLVIYQDNKRPSGIPERFSGSNSGNTATLTISGTQAMDEADYYCQVWDNYSVLFGGGTKLTVLGGSGGSQVQLVQSGAEVKKPGESLKVSCKASGYTFTSYYMHWVRQAPGQGLEWMGAIEPMYGSTSYAQKFQGRVTMTRDTSTSTVYMELSSLRSEDTAVYYCARGSAYYYDFADYWGQGTLVTVSSGGSGGSGGSGGSGGSGGSSYVLTQPSSVSVAPGQTATISCGGHNIGSKNVHWYQQRPGQSPVLVIYQDNKRPSGIPERFSGSNSGNTATLTISGTQAMDEADYYCQVWDNYSVLFGGGTKLTVLGGSGGSQVQLVQSGAEVKKPGESLKVSCKASGYTFTSYYMHWVRQAPGQGLEWMGAIEPMYGSTSYAQKFQGRVTMTRDTSTSTVYMELSSLRSEDTAVYYCARGSAYYYDFADYWGQGTLVTVSS
light: B3 light
B5: scFv-Fc-scDb_04 (bispecific antibody)
chain: QVQLQESGPGLVKPSETLSLTCTVSGGSVSSGSYYWSWIRQPPGKGLEWIGYIYYSGSTNYNPSLKSRVTISVDTSKNQFSLKLSSVTAADTAVYYCARNPISIPAFDIWGQGTMVTVSSGGSGGSGGSGGSGGSGGSQPVLTQPPSVSVAPGKTARITCGGNNIGSKSVHWYQQKPGQAPVLVIYYDSDRPSGIPERFSGSNSGNTATLTISRVEAGDEADYYCQVWDTSSDHVLFGGGTKLTVLGGGGSDKTHTCPPCPAPEFEGGPSVFLFPPKPKDTLMISRTPEVTCVVVAVSHEDPEVKFNWYVDGVEVHNAKTKPREEQYGSTYRVVSVLTVLHQDWLNGKEYKCKVSNKALPAPIEKTISKAKGQPREPQVYTLPPSREEMTKNQVSLTCLVKGFYPSDIAVEWESNGQPENNYKTTPPVLDSDGSFFLYSKLTVDKSRWQQGNVFSCSVMHEALHNHYTQKSLSLSPGGGGGSGGGGSSYELTQPLSVSVALGQTARITCGGHNIGSKNVHWYQQKPGQAPVLVIYQDNKRPSGIPERFSGSNSGNTATLTISRAQAGDEADYYCQVWDNYNVLFGCGTKLTVLGGSGGSQVQLVQSGAEVKKPGASVKVSCKASGYTFTSYYMHWVRQAPGQCLEWMGAIEPTYGSTSYAQKFQGRVTMTRDTSTSTVYMELSSLRSEDTAVYYCARGSAYYYDFADYWGQGTLVTVSSGGSGGSGGSGGSGGSGGSSYELTQPLSVSVALGQTARITCGGHNIGSKNVHWYQQKPGQAPVLVIYQDNKRPSGIPERFSGSNSGNTATLTISRAQAGDEADYYCQVWDNYNVLFGCGTKLTVLGGSGGSQVQLVQSGAEVKKPGASVKVSCKASGYTFTSYYMHWVRQAPGQCLEWMGAIEPTYGSTSYAQKFQGRVTMTRDTSTSTVYMELSSLRSEDTAVYYCARGSAYYYDFADYWGQGTLVTVSS

How the values were obtained:
Assay in all cases: cell-based or functional assay
[1] = biological target: T1, BCMA on MM.1S target cells
[2] = biological target: CD16A on primary human NK cells (human, UniProt P08637 17-254)
CD16A on primary human NK cells, sequence (P08637 17-254 limits assumed): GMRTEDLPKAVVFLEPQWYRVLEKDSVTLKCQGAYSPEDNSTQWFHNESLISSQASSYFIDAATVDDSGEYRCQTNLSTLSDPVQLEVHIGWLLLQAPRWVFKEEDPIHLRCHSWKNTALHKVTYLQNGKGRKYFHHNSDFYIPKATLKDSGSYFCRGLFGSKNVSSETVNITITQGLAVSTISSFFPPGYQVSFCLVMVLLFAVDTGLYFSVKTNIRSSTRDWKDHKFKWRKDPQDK

[3] = biological target: T2, EGFR on tumor target cells (MCF-7, Daudi, DK-MG, HCT-116) (UniProt P00533 25-1210, limits assumed)
[4] = biological target: T2, EGFR on tumor target cells (MCF-7, …); remark: listed apart in the source
[5] = biological target: T2, EGFR on tumor target cells (MCF-7, …); remark: listed apart in the source

Binder	EC50 [pM], 4 h calcein-release cytotoxicity on BCMA+ MM.1S target cells, NK cells E:T 5:1 [1]	Emax [%], 4 h calcein-release cytotoxicity on BCMA+ MM.1S target cells, NK cells E:T 5:1 [1]	Emax [%], 4 h calcein-release NK cell fratricide assay, E:T 1:1 [2]	EC50 [pM], 4 h calcein-release cytotoxicity on MCF-7 target cells, NK cells E:T 5:1 [3]	Emax [%], 4 h calcein-release cytotoxicity on MCF-7 target cells, NK cells E:T 5:1 [3]	EC50 [pM], 4 h calcein-release cytotoxicity on Daudi target cells, NK cells E:T 5:1 [4]	Emax [%], 4 h calcein-release cytotoxicity on Daudi target cells, NK cells E:T 5:1 [4]	Emax [%], 4 h calcein-release cytotoxicity on Daudi target cells, NK cells E:T 5:1 [5]
B1	1 pM	46.4%						
B2	2.4 pM	51%						
B3			2.8%	8.8 pM	17.9%	46.8 pM	8%	
B4			15%	2.1 pM	25%	18.6 pM	18.2%	
B5								22.6%

Source: patent US20240376208A1 (AFFIMED, published 2024)
